Test results reported in article PMC11564643.

Legend:
[1] = target: dynamic microtubules grown from GMPCPP stabilized seeds (porcine brain tubulin) (porcine) (UniProt P02550)
[2] = target: dynamic microtubules grown from GMPCPP stabilized seeds (porcine brain tubulin) (porcine) (UniProt P02550); test: FRAP (TIRF microscopy on dynamic microtubules); set-up of the buckling experiment; EB3 and HSET bleached together (488 and 561 nm lasers at 100% for 50 frames), recovery followed at free tips and in antiparallel overlaps

Substance	force on a streptavidin bead coated directly with a saturating amount of biotinylated EB3 dimers, optical trap at a growing microtubule tip [1] [pN]	fluorescence recovery time at single microtubule tips (in the presence of HSET) [2] [s]	fold slower turnover at tips in antiparallel overlaps (with HSET) against single tips [2] [fold]
biotinylated EB3 dimers coupled directly to streptavidin beads (from UniProt Q9UPY8 1-281) (natural protein)	0.5		
mGFP-EB3 homodimer (from UniProt Q9UPY8 1-281) (natural protein)		6	3
